Like-named read-outs stand apart in the source and are kept apart here.
Legend:
[1] = tested on: aminoacyl-tRNA synthetase (RS); assay: RS test
Experimental: (§1) This example provides results of four tests that were conducted on certain illustrative non-natural amino acids as an aid for predicting their properties for incorporation into non-natural amino acid polypeptides.

[2] = Intracellular concentration of non-natural amino acids (cellular uptake); assay type: in vitro ADME
Source text: Non-natural amino acid uptake by a eukaryotic cell is one issue that is typically considered when designing and selecting non-natural amino acids, including but not limited to, for incorporation into a protein. […] Natural amino acids are taken up into the eukaryotic cell via a collection of protein-based transport systems. A rapid screen can be done which assesses which non-natural amino acids, if any, are taken up by cells (examples 15 & 16 herein illustrate non-limiting examples of tests which can be done on non-natural amino acids). See, e.g., the toxicity assays in, e.g., the U.S. Patent Publication No. 2004/198637 entitled “Protein Arrays,” which is herein incorporated by reference in its entirety, and Liu, D. R. & Schultz, P. G. (1999) Progress toward the evolution of an organism with an expanded genetic code. PNAS United States 96:4780-4785. Although uptake is easily analyzed with various assays, an alternative to designing non-natural amino acids that are amenable to cellular uptake pathways is to provide biosynthetic pathways to create amino acids in vivo.
as §1

[3] = Pharmacokinetic studies, single s.c. dose in rats, plasma growth hormone ELISA; assay type: in vivo; details: single-dose 1 mg/kg bolus s.c., normal male Sprague-Dawley rats; average (+/- standard deviation)
Experimental: Pharmacokinetic properties of PEG-modified growth hormone compounds were compared to each other and to nonPEGylated growth hormone in male Sprague-Dawley rats (261-425 g) obtained from Charles River Laboratories. Catheters were surgically installed into the carotid artery for blood collection. Following successful catheter installation, animals were assigned to treatment groups (three to six per group) prior to dosing. Animals were dosed subcutaneously with 1 mg/kg of compound in a dose volume of 0.41-0.55 ml/kg. Blood samples were collected at various time points via the indwelling catheter and into EDTA-coated microfuge tubes. Plasma was collected after centrifugation, and stored at −80° C. until analysis. Compound concentrations were measured using antibody sandwich growth hormone ELISA kits from either BioSource International (Camarillo, Calif.) or Diagnostic Systems Laboratories (Webster, Tex.). Concentrations were calculated using standards corresponding to the analog that was dosed. Pharmacokinetic parameters were estimated using the modeling program WinNonlin (Pharsight, version 4.1). Noncompartmental analysis with linear-up/log-down trapezoidal integration was used, and concentration data was uniformly weighted.
Plasma concentrations were obtained at regular intervals following a single subcutaneous dose in rats. […] Plasma samples were taken over the regular time intervals and assayed for injected compound as described. […] Concentration vs time curves were evaluated by noncompartmental analysis (Pharsight, version 4.1). Values shown are averages (+/−standard deviation). Cmax: maximum concentration; terminal t1/2: terminal half-life; AUC0->inf: area under the concentration-time curve extrapolated to infinity; MRT: mean residence time; Cl/f: apparent total, plasma clearance; Vz/f: apparent volume of distribution during terminal phase.

| Intracellular Concentration [2] [µM] | Compound | AUC0->inf [3] | Cl/f [3] | Cmax [3] | MRT [3] | Terminal t1/2 [3] | also measured |
| --- | --- | --- | --- | --- | --- | --- | --- |
| 628 | CC(=O)CNC(=O)c1ccc(C[C@H](N)C(=O)O)cc1 | – | – | – | – | – | Intracellular Concentration ([2]; remark in words): little reduced |
| 30 | CC(=O)N/N=C/c1ccc(C[C@H](N)C(=O)O)cc1 | – | – | – | – | – | RS test [1]: ✓ |

Second part, the compound before the results:

| Compound | Intracellular Concentration [2] [µM] | AUC0->inf [3] | Cl/f [3] | Cmax [3] | MRT [3] | Terminal t1/2 [3] | also measured |
| --- | --- | --- | --- | --- | --- | --- | --- |
| CC(=O)CC(=O)c1ccc(C[C@H](N)C(=O)O)cc1 | – | – | – | – | – | – | RS test [1]: Meta- bolized |
| CC(=O)C(=O)Nc1ccc(C[C@H](N)C(=O)O)cc1 | 376 | – | – | – | – | – | – |
| CC(=O)C(=O)c1ccc(C[C@H](N)C(=O)O)cc1 | – | – | – | – | – | – | Intracellular Concentration ([2]; remark in words): Reduced [M + 2] |
| 30KPEG-pAF143(his)hGH: "His-tagged hGH polypeptide comprising non-natural amino acid p-acetyl-phenylalanine covalently linked to 30 kDa PEG at each of six different positions" | – | 17,494 (±3,654) ng × hr/ml | 59 (±11) ml/hr/kg | 803 (±149) ng/ml | 18.83 (±1.59) h | 6.02 (±1.43) h | – |
| 30KPEG-pAF145(his)hGH: "His-tagged hGH polypeptide comprising non-natural amino acid p-acetyl-phenylalanine covalently linked to 30 kDa PEG at each of six different positions" | – | 13,162 (±6,726) ng × hr/ml | 88 (±29) ml/hr/kg | 634 (±256) ng/ml | 17.82 (±0.56) h | 5.87 (±0.09) h | – |
| 30KPEG-pAF134(his)hGH: "His-tagged hGH polypeptide comprising non-natural amino acid p-acetyl-phenylalanine covalently linked to 30 kDa PEG at each of six different positions" | – | 7,304 (±2,494) ng × hr/ml | 151 (±63) ml/hr/kg | 566 (±204) ng/ml | 12.15 (±1.03) h | 4.36 (±0.33) h | – |

Reference: patent publication US8008456B2, “Compositions containing, methods involving, and uses of non-natural amino acids and polypeptides” (Ambrx, Inc., priority 2004, dated 2011)
